From patent US20240270857A1 (CHIA TAI TIANQING PHARMACEUTICAL GROUP, published 2024)

T1: IL-36R naturally expressed on OVCAR8 cells and on normal human epidermal keratinocytes (NHK cells) (human, UniProt Q9HB29 20-575)
T1 sequence (looked up): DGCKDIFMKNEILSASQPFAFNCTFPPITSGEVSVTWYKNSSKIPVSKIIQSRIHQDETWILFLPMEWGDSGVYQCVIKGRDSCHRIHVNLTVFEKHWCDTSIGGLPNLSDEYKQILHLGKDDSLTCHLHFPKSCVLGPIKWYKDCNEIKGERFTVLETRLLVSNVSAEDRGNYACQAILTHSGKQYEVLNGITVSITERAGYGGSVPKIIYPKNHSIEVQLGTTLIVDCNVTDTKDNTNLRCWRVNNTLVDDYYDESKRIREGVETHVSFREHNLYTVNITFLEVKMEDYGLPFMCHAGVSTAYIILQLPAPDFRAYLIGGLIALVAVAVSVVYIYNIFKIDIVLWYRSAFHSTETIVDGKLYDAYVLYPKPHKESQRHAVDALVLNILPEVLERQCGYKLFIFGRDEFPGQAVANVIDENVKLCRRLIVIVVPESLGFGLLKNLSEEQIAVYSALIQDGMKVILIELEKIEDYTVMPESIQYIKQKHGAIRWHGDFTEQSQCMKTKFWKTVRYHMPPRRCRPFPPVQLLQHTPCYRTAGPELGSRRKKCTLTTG

T2: human IL-36R overexpressed on 293T-hIL36R-NFκB cells (human, UniProt Q9HB29 20-575)
T2 sequence: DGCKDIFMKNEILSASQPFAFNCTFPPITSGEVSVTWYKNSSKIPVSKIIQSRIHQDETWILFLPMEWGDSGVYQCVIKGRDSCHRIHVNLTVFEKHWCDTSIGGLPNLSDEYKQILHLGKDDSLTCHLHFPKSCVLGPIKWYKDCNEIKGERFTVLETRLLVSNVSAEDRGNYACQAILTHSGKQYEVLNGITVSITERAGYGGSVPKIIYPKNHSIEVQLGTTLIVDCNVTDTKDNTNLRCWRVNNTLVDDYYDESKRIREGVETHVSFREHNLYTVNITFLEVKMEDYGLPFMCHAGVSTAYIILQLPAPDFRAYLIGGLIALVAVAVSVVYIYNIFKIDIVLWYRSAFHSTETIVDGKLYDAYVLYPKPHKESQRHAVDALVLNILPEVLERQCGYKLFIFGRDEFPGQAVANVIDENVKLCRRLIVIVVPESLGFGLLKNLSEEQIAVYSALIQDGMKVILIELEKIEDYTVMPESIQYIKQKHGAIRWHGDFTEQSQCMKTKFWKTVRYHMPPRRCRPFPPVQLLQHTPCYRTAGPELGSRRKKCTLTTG

T3: Human IL-1Rrp2/IL-1R6 protein, His Tag (ACROBiosystems, IL2-H52H6) (human, UniProt Q9HB29 20-335)
T3 construct: Bought protein; the soluble protein is likely only the extracellular part; also called hIL-36R; human IL36R antigen; not shown: His tag
T3 sequence: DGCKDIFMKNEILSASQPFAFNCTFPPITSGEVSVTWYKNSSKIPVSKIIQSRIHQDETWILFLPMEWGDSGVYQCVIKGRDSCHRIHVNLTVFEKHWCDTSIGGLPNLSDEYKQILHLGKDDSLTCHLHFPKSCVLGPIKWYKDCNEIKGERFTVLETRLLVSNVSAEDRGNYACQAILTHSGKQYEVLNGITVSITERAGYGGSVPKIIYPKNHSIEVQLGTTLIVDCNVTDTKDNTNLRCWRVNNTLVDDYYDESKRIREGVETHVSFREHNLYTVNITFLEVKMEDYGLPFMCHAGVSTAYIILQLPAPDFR


How the values were obtained:
[1] = molecular target: T1, IL-36R naturally expressed on OVCAR8 …; test: cell-based or functional assay
[2] = molecular target: T2, human IL-36R overexpressed on …; test: cell-based or functional assay
[3] = molecular target: T3, Human IL-1Rrp2/IL-1R6 protein, His Tag …; test: ELISA, plate coated with human IL-1Rrp2/IL-1R6 His Tag, HRP-protein A/G, OD450
Procedure: The binding activity of anti-IL-36R antibodies to IL-36R was analyzed by ELISA using human IL-1Rrp2/IL-1R6 protein, His Tag (ACROBiosystems, IL2-H52H6) and CynoIL36R-ECD mFc (for detection of chimeric and humanized antibodies), and hIL36R-ECD hFc and CynoIL36R-ECD hFc protein (for detection of hybridoma antibodies) as antigens. A 96-well plate (Costar, 9018) was coated with 2 μg/mL antigen at 100 μL/well and incubated overnight at 4° C. After the 96-well plate was washed with a washing buffer (PBS containing 0.05% v/v Tween 20), a blocking buffer (PBS containing 2% bovine serum albumin) was added for blocking at 37° C. for 2 h. After the 96-well plate was washed with the washing buffer, 100 μL of the gradient diluted anti-IL-36R antibody of the present disclosure or the reference antibody BI655130 (the initial concentration of the antibody was 66 nM, 4-fold gradient dilution) was added to each well, and the plate was incubated at room temperature for 1 h. After the 96-well plate was washed with the washing buffer, 100 μL of horseradish peroxidase-conjugated recombinant protein A/G (TheroScientific, 32490) was added to each well, and the plate was incubated at room temperature for 1 h. After the 96-well plate was washed with the washing buffer, 100 μL of a TMB solution (Thermo, 00-4201-56) was added to each well, and the plate was incubated at room temperature for 2 min. Finally, 100 μL of a stop solution (2 N H₂SO₄) was added to each well to stop the reaction. Absorbance was read at 450 nm using a microplate reader (PE, Envision), the resulting data was analyzed using GraphPad Prism, and EC₅₀ was calculated. Binding EC₅₀ of the chimeric anti-IL-36R antibodies to hIL-36R in an ELISA assay is shown in FIG. 1. and binding EC₅₀ of the chimeric anti-IL-36R antibodies to CynoIL-36R in an ELISA assay is shown in FIG. 2. The binding of BI655130 is shown as a control, and the binding of IgG4 is shown as a negative control.

Row | IC50 (M); hIL36α; IL-8 production [1] [M] | IC50 (M); hIL36αβγ; IL-8 production [1] [M] | IC50 (M); hIL36β; IL-8 production [1] [M] | IC50 (M); hIL36γ; IL-8 production [1] [M] | Maximum inhibition rate %; hIL36α; IL-8 production [1] [%] | Maximum inhibition rate %; hIL36αβγ; IL-8 production [1] [%] | Maximum inhibition rate %; hIL36β; IL-8 production [1] [%] | Maximum inhibition rate %; hIL36γ; IL-8 production [1] [%] | IC50 (M); hIL36α; NFκB-luciferase [2] [M] | IC50 (M); hIL36αβγ; NFκB-luciferase [2] [M] | IC50 (M); hIL36β; NFκB-luciferase [2] [M] | IC50 (M); hIL36γ; NFκB-luciferase [2] [M] | Maximum inhibition rate %; hIL36α; NFκB-luciferase [2] [%] | Maximum inhibition rate %; hIL36αβγ; NFκB-luciferase [2] [%] | Maximum inhibition rate %; hIL36β; NFκB-luciferase [2] [%] | Maximum inhibition rate %; hIL36γ; NFκB-luciferase [2] [%] | EC50 [3] [nM] | Binder
1 | 3.02e-11 | 9.17e-11 | 4.11e-11 | 2.59e-11 | 99 | 97.5 | 98.4 | 98.2 | 9.56e-09 | 5.27e-08 | 3.07e-09 | 2.82e-08 | 99.6 | 109 | 94.6 | 98.1 | 2.94 | hz72C1-1.1 (antibody, human IgG4 S228P, kappa, Humanized, human IgG4 / kappa; also called humanized 72C1 antibody 1.1) heavy: not shown light: DIQMTQSPSSLSASVGDRVTITCRASSNVRYMYWYQQKPGKAPKLWIYLTSNLASGVPSRFSGSGSGTSYTLTISSLQPEDFATYYCQQFTTSPYTFGQGTKLEIKRTVAAPSVFIFPPSDEQLKSGTASVVCLLNNFYPREAKVQWKVDNALQSGNSQESVTEQDSKDSTYSLSSTLTLSKADYEKHKVYACEVTHQGLSSPVTKSFNRGEC
2 | 1.94e-10 | 2.3e-10 | 1.45e-10 | 7.6e-11 | 98.5 | 97.1 | 98 | 97.7 | 1.61e-08 | ~4.44e-08 | 4.66e-09 | 3.68e-08 | 92 | 77.9 | 94.7 | 87.9 | 4.88 | hz72C1-2.2 (antibody, human IgG4 S228P, kappa, Humanized, human IgG4 / kappa) heavy: not shown light: DIQMTQSPSSLSASVGDRVTITCRASSNVRYMYWYQQKPGKAPKLWIYLTSNLASGVPSRFSGSGSGTSYTLTISSLQPEDFATYYCQQYTTSPYTFGQGTKLEIKRTVAAPSVFIFPPSDEQLKSGTASVVCLLNNFYPREAKVQWKVDNALQSGNSQESVTEQDSKDSTYSLSSTLTLSKADYEKHKVYACEVTHQGLSSPVTKSFNRGEC
3 | 4.08e-11 | 8.4e-11 | 1.6e-11 | 2.42e-11 | 99 | 97.7 | 98.4 | 98.3 | 6.82e-09 | 4.03e-08 | 3.88e-09 | 1.88e-08 | 98.7 | 90.1 | 96.7 | 101 | 2.86 | hz72C1-1.3 (antibody, human IgG4 S228P, kappa, Humanized, human IgG4 / kappa) heavy: not shown light: DIQMTQSPSSLSASVGDRVTITCRASSNVRYMYWYQQKPGKAPKLWIYLTSNLASGVPSRFSGSGSGTSYTLTISSLQPEDFATYYCQQFTTSPYTFGQGTKLEIKRTVAAPSVFIFPPSDEQLKSGTASVVCLLNNFYPREAKVQWKVDNALQSGNSQESVTEQDSKDSTYSLSSTLTLSKADYEKHKVYACEVTHQGLSSPVTKSFNRGEC
4 | 1.43e-10 | 3.97e-10 | 9.9e-11 | 8.27e-11 | 98.6 | 96.4 | 98.3 | 97.8 | 9.83e-09 | 6.62e-08 | 5.08e-09 | 3.72e-08 | 87.9 | 70.5 | 92.3 | 85.4 | 9.35 | hz72C1-2.1 (antibody, human IgG4 S228P, kappa, Humanized, human IgG4 / kappa) heavy: not shown light: DIQMTQSPSSLSASVGDRVTITCRASSNVRYMYWYQQKPGKAPKLWIYLTSNLASGVPSRFSGSGSGTSYTLTISSLQPEDFATYYCQQYTTSPYTFGQGTKLEIKRTVAAPSVFIFPPSDEQLKSGTASVVCLLNNFYPREAKVQWKVDNALQSGNSQESVTEQDSKDSTYSLSSTLTLSKADYEKHKVYACEVTHQGLSSPVTKSFNRGEC
5 | 2.17e-10 | 3.58e-10 | 1.67e-10 | 5.31e-11 | 98.1 | 95 | 97.9 | 97.7 | 1.61e-08 | ~1.39e-08 | 2.93e-09 | 2.94e-08 | 90.8 | 66.3 | 83.7 | 89 | 8.9 | hz72C1-2.3 (antibody, human IgG4 S228P, kappa, Humanized, human IgG4 / kappa) heavy: not shown light: DIQMTQSPSSLSASVGDRVTITCRASSNVRYMYWYQQKPGKAPKLWIYLTSNLASGVPSRFSGSGSGTSYTLTISSLQPEDFATYYCQQYTTSPYTFGQGTKLEIKRTVAAPSVFIFPPSDEQLKSGTASVVCLLNNFYPREAKVQWKVDNALQSGNSQESVTEQDSKDSTYSLSSTLTLSKADYEKHKVYACEVTHQGLSSPVTKSFNRGEC
